# Results from patent US20030103986A1 (ZymoGenetics, published 2003).
# What was measured:
# ZTNF4 [1] = target: T1, ZTNF4 (Homo sapiens (Human), UniProt Q9Y275 134-285, limits assumed, radioiodinated with 125I (Iodobeads) in the binding assays; unlabeled ZTNF4 used to determine nonspecific binding); test: competitive binding: TACI-Fc against plate-coated TACI-N for 125I-ZTNF4 (20 ng/ml); average of three experiments
# T1 construct: also called BAFF
# Procedure: (§1) An N-terminal fragment of the TACI receptor, designated as “TACI-N,” was added to 96-well plates (100 μl at 0.1 μg/ml), and incubated overnight at 4° C. The plates were washed, blocked with Superblock (Pierce), and washed again. […] After incubation, the plates were washed and counted. Each determination was performed in triplicate.
# ZTNF4 [2] = target: T1, ZTNF4; test: solution binding: 0.05 nM TACI-Fc with 0.4 pM to 1.5 nM 125I-ZTNF4, Pansorbin precipitation
# Procedure: At a concentration of 0.05 nM, each TACI-Fc construct was incubated with 0.4 pM to 1.5 nM ¹²⁵I-ZTNF4 for 30 minutes at room temperature in a total volume of 0.25 ml/tube. A Pansorbin (Staph A) suspension was added to each tube, and after 15 minutes, the samples were centrifuged, washed twice, and the pellets counted. Nonspecific binding was determined by the addition of 130 nM unlabeled ZTNF4 to the ¹²⁵I-ZTNF4/TACI-Fc mix. Specific binding was calculated by subtracting the cpm bound in the presence of unlabeled ZTNF4 from the total cpm bound at each concentration of ¹²⁵I-ZTNF4. Each determination was performed in triplicate. Binding constants were calculated using GraphPad Prism software (MacIntosh v. 3.0).
# ZTNF4 [3] = target: T1, ZTNF4; test: competitive binding: TACI-Fc against plate-coated TACI-N for 125I-ZTNF4
# Procedure: as §1
IC50 (ZTNF4 [1]),Bmax (ZTNF4 [2]),Kd (ZTNF4 [2]),concentration giving complete inhibition (ZTNF4 [3]),Binder
2.21 nM,0.021 nM,0.092 nM,~100 ng/mL,"TACI (d1-29, d120-154)-Fc5 (Fc fusion) AMRSCPEEQYWDPLLGTCMSCKTICNHQSQRTCAAFCRSLSCRKEQGKFYDHLLRDCISCASICGQHPKQCAYFCENKLRSPVNLPPELREPKSSDKTHTCPPCPAPEAEGAPSVFLFPPKPKDTLMISRTPEVTCVVVDVSHEDPEVKFNWYVDGVEVHNAKTKPREEQYNSTYRVVSVLTVLHQDWLNGKEYKCKVSNKALPSSIEKTISKAKGQPREPQVYTLPPSRDELTKNQVSLTCLVKGFYPSDIAVEWESNGQPENNYKTTPPVLDSDGSFFLYSKLTVDKSRWQQGNVFSCSVMHEALHNHYTQKSLSLSPGK"
2.31 nM,0.018 nM,0.115 nM,~100 ng/mL,"TACI (d1-29, d111-154)-Fc5 (Fc fusion) AMRSCPEEQYWDPLLGTCMSCKTICNHQSQRTCAAFCRSLSCRKEQGKFYDHLLRDCISCASICGQHPKQCAYFCENKLRSEPKSSDKTHTCPPCPAPEAEGAPSVFLFPPKPKDTLMISRTPEVTCVVVDVSHEDPEVKFNWYVDGVEVHNAKTKPREEQYNSTYRVVSVLTVLHQDWLNGKEYKCKVSNKALPSSIEKTISKAKGQPREPQVYTLPPSRDELTKNQVSLTCLVKGFYPSDIAVEWESNGQPENNYKTTPPVLDSDGSFFLYSKLTVDKSRWQQGNVFSCSVMHEALHNHYTQKSLSLSPGK"
4.95 nM,0.01 nM,0.121 nM,~100 ng/mL,"TACI (d1-29, d107-154)-Fc5 (Fc fusion) AMRSCPEEQYWDPLLGTCMSCKTICNHQSQRTCAAFCRSLSCRKEQGKFYDHLLRDCISCASICGQHPKQCAYFCENEPKSSDKTHTCPPCPAPEAEGAPSVFLFPPKPKDTLMISRTPEVTCVVVDVSHEDPEVKFNWYVDGVEVHNAKTKPREEQYNSTYRVVSVLTVLHQDWLNGKEYKCKVSNKALPSSIEKTISKAKGQPREPQVYTLPPSRDELTKNQVSLTCLVKGFYPSDIAVEWESNGQPENNYKTTPPVLDSDGSFFLYSKLTVDKSRWQQGNVFSCSVMHEALHNHYTQKSLSLSPGK"
2.07 nM,0.023 nM,0.134 nM,~100 ng/mL,"TACI (d1-29)-Fc5 (Fc fusion, Made in CHO DG44 cells) AMRSCPEEQYWDPLLGTCMSCKTICNHQSQRTCAAFCRSLSCRKEQGKFYDHLLRDCISCASICGQHPKQCAYFCENKLRSPVNLPPELRRQRSGEVENNSDNSGRYQGLEHRGSEASPALPGLKEPKSSDKTHTCPPCPAPEAEGAPSVFLFPPKPKDTLMISRTPEVTCVVVDVSHEDPEVKFNWYVDGVEVHNAKTKPREEQYNSTYRVVSVLTVLHQDWLNGKEYKCKVSNKALPSSIEKTISKAKGQPREPQVYTLPPSRDELTKNQVSLTCLVKGFYPSDIAVEWESNGQPENNYKTTPPVLDSDGSFFLYSKLTVDKSRWQQGNVFSCSVMHEALHNHYTQKSLSLSPGK"
